Experimental data reported in the nanobody polyreactivity screen of Harvey et al. (2022).

Assay: yeast display, Sf9 membrane polyspecificity reagent, FACS + sequencing; frameworks hold sequencing errors
Method in brief: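 Galactose-induced (36–48 hours) yeast carrying a synthetic nanobody display library were exposed to 10% biotinylated, detergent-solubilized Sf9 membrane reagent at 4 °C for 1 hour. FACS followed streptavidin microbead enrichment, using low and high (top ~1%) gates for expression (anti-HA) and reagent binding (streptavidin). Colony PCR, MiSeq 2 × 250 sequencing and CDR-length filtering followed. Labels for polyreactivity reflect the gate of origin.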

Sequence	polyreactivity (PSR sort gate)
QDQLVESGGGLVQAGGSLRLSCAASGRTFGTNARGWYRQAPGKERELVAGINYSDGSTYYADSVKGRFTISRDNAKNTVYLQMNSLKPEVTAVYYCAADPGWAWWELYYWGQGTQVTVSS	low polyreactivity
QVQLVESGGGLVQAGGSLRLSCAASGYIFIRNAMGWYRPAPGKDRELVAAISWTGGNTYYADSVKGRFTISRDNAKNTVYLQMNSLKPEDTAVYYCAALRSVFKSFRTTYVRYDYWGQATQVTVSS	high polyreactivity
QVQLVESGGGLVQAGGSLRLSCAASGSTFFLYAMGWYRQAPGKERELVAVITWRGGRTYYADSVKGRFTISRDNAKNTVYLQMNSMKPEDTAVYYCAAEYYWPVKYYYWGQGTQVTVSS	high polyreactivity
QVQLVESGGGLVQAGGSRRLSCAASGFFFRNYAMGWYRQAPGKEMELVAVITSSGGSTYYADSVKGRFTISRDNAKNTVYLQMNSLKPEDTAVYYCNKPGLRSGPRYDYWGQGTQVTVSS	high polyreactivity
QLQLQESGGGLVQAGGSLRLSCAASAFIFARNYMGWYRQAPGKERELVAGIGVGASTNYADSVKGRFTISRDNAKNTVYLQMNSLEPEDTAVYYCAVGDTVLGYHYYWGQGTQVTVSN	low polyreactivity
QVQLVESGGGLVQAGGSLRLSCAASGSISYRYVMGWYRQAPGKERELVAAITTSGGSTYYADSVKGRFTISRDNAKNTVYLQKNSLKPEDTAVYYCAKVYQADQLRSHYDYWGQGTQVTVSS	high polyreactivity
QVQLVESGGGLVQAGGSLRLSCAASGFTFPYYAMGWYRQAPGKEMELVAVISGSGTRTNYADSVKGRFTISRDNAKNTVYLQMNSLKPEDTEVYYCAAYYTYLHYIYDYWGQGTQVTVSS	high polyreactivity
QVQLVESGGGLVQAGGSLRLSCAASGRTFLVYAMGWYRQAPGKERELVAAITWTGGTTYYADSVKGRFTISRDNAKNTVYLQMNSLKPEDTAVYYCNKRGSAWLVEEVDYWGQGTQVTVSS	low polyreactivity
QVQHVESGGGLVQARGSLRLSCSASGVIFYNYAMGWSRQAPGKEREFVAAISGSGGSTYYADSVKGRFTISRDNAKNTVYLQMNSLKPEDTAVYYCAVRQRYGPARYDYWGQGTQVTVSS	high polyreactivity
QVQLVESGGGLVQAGGSLRLSCAASGRIIYGNALGWYRQAPGKERELVAAITSGGSTNYADSVKGRFPISRDNAKNTVYLQMNSLIPEDTAVYYCNAVVYSAYRYEYWGQGTQVTVSS	low polyreactivity
QVQLVESGGGLVQAGGSLRLSCAASGSTFKRYAMGWYRQAPGKERELVAAISLSSGSTYYADSVKGRFTISRDNAKNTVYLQMNSLKPEDTAVYYCNAAKTYPDVYEYDYWGQGTQVTVSS	high polyreactivity
QVQLVESGGGLVQAGGSLRLSCAASGIIFYGYVMGWYRQAPGKERELVATITSSGGSTYYADSVKGRFTISRDNAKNTVYLQMNSLKPEDTAVYYCAAYYYYGAWVRHDYWGQGTQVTVSS	low polyreactivity
QVQLVESGGGLVQAGGSLRLSCAASGFTFFRYAMGWYRQAPGKERELVASITSGGSTNYADSVKGRFTISRDNAKNTVYLQMNSLKPEDTAVYYCAAGSSFFRWVYEATGFYYWGQGTQVTVSS	high polyreactivity
QVQLEESGGGLVQAGGSLRLSCAGSGNIFPSYALGWYRQAPGKERELVAAITYSAVSTYYADSVKGRFTISRDNAKNTVYLQMNSLKPEDTAVYYCAKETTEVPGVGSQEMDFWGQGTQVTVSS	low polyreactivity
QVQLVESGGGLVQAGGSLRLSCAASGRIFRFYAMGWYRQAPGKERELVAAISSRGGSTYYADSVKGRFTISRDNAKNTVYLQMNSLKPEDTAVYYCNAYGSTSQMDYWGQGTQVTVSS	high polyreactivity
QVQLVESGGGLVQAGGSLRLSCAASGYIFAYYAMGWYRQEPGKERELVADIRGRGGSTYYADSVKGRFTISRDNAKNTVYLQMNSLKTEDTAVYYCARRSPNPYSIYYYWGQGTQVTVSS	high polyreactivity
QVQLVESGGGLVQAGGSLRLSCAASGAMGCYRQAPGKERELVAGITSGGSTNYADSEKGRFTISRDNAKNTVYLQMNSLKPEDTAVYYCNAVGGPRWFSVGWPYDYWGQGTQVTVSS	low polyreactivity
QVQLVESGGGLVQAGGSLRLSCAASGRTFAWYTMGWYRQAPGKERELVASITKRGGRTYYADSVKGRFTISRDNAKNTVYLQMNSLKPEDTAVYYCAAGASQGRGTVTFDYWGQGTQVTVSS	high polyreactivity
QVQLVESGGGLVQAGGSLRLSCAASGINFYAYAMGWYRKAPGKERELVAAITFSAVSTYYADSVKGRFTISRDNAKNSVYLQMNSLKPEDTAVYYCAAEAYKQGVWDYDYWGQGTQVTVSS	low polyreactivity
QVQLVESGGGLVQAGGSLRLSCAASGIIFKVNVMGWYRQAPGKERELVAAISWSGGSTYYADSVKGRFTISRDNAKNTFYLQMNILKPEDTAVYYCAAYSYVYGERYYFWGQGTQLTVSS	high polyreactivity
QVQLVESGGGLVQAGGSLRLSCAASGFIFRWYAMGWYRPAPGKERELVASINWSGSRTNYADSVKGRFTISRDNAKNTVYLQMNSLKPEDTAVYYCNAYGGLQYDYWGQGTQVTVSS	high polyreactivity
QVHLVESGGGLVQAGGSLRLSCAASGSTFAVYAMGWYRQAPWKESELVAGISSRGGRTYYADSVKGRFTISRDNAKNTVYLQMNSLKPEDTAVYYCNVVYTYWRYYRWREYDYWGQGTQVTVSS	high polyreactivity

Sequence	polyreactivity (PSR sort gate)
QVQLVESGGGLVQAGGSLRLSCAASGIIFYSNAMGWARQAPGKETELVAGISKSGGSTYYADSVKGRFTISRDNAQNTVYLQMHSLKPEDTAVYYCAVRGGGRYRSWGYDYWGQGTQVTVSS	high polyreactivity
QVQLVESGGGLFQAGGSLRLSCAASGFIFSYNAMGWYRQAPGKERELVAAISSSGGTTYYADSVKGRFTISRDNAKNTVYLQMNSLKPEDTAVYYCNARWHAEYDYWGQGTQVTVSA	low polyreactivity
QVQLVDSGGGLVQAGGSLRLSCAASGRNFNEYAMGWSRPAPGKERELVAAISSSGDSTYYADSVKGRFTISRDNAKNTVYLQMNSLKPEDTAVYYGAAQVVVWYPYVYFPGSDYWGQGTQVTVSS	low polyreactivity
QVQLVESGGGLDQAGGSLRLSCAASGNTFHPYAMGWYRQAPGKERELVAAITKSGGSTYYADSVKGRFTISRDNAKKTVYLQMNSLKPEDTAVYYCNADDGVTEYDYWGQGTQVTVSS	low polyreactivity
QVQLVESGGGLVQAGGSLRLSCAASGSIFGDNAMGRYRQAPGKERELVAVISSSGSTYYADSVKGRFTISRDTAMNTVYLQMNSLKAEDTAVYYCNAYEFDWYEEYYYWGQGTQVTVSS	low polyreactivity
QVHLVESGGGLVQAGGSLRLSCAASGRIFSRNAMGWYRQAPGKERELVASITRGGSTYYADSVKGRFTISRDNAKITVYLQMNSLKPEDTAVYYCAAVFYDRGQRYNYWGQGTQVTVSS	high polyreactivity
QVQLVESGGGLVQAGGSLRLSCAASGRIFRWYAMGWNRQAPGQERELVAAITRGDITNYADSVKGRFTISRDNAKNTVYLQMNSLKPEDTAVYYCNAQWYDIYDYWGQGSQVTVSS	high polyreactivity
QVQLVESGGGLVQAGGSLRLSCAASVSIFKGYAMGWYRQAPGKERELVAAITGSDGSTYADSVKGRFTISRDNAKNTVYLQMNSLKPEDTAVYYCNTGGWTRYRPPGYEWNWYDYWGQGTQVTVSS	low polyreactivity
QVQLVESGGGLVQAGGSLRLSCAASGFTFRSYTMGWYRQAPGKERELVARITRSCGNTYYADSVKGRFTISRDNAKNTVYVQMNSLKPEDTEGYYCASVYWGKYSAGNLLEYDYWGQGTQVTVSS	high polyreactivity
QVQLVESGGGIVQAGGSLRLSCAASGRNFSRYAMGWYRQAPGKERELVAVISRSGADTYYADSVKGRFTISRDNAKNTVYLQMNSLKPEDTAVYYCNAYSARRPHPMGYDYWGEGTQVTVSS	high polyreactivity
QVQLVESGGGLVQAGGSLRLSCAASGSIFSGWYTMGWYRQAPGKERELVASISISTTDTYYADSVKGRFTISRDNAKNTVYLQMNSLKPEDTAVYYCADEVTSFSFGGDATEYYWGQGTQVTVSS	low polyreactivity
QVQLVESGGGLVQAGGSLRLSCAASGSILFTNAMGWYRQAPGKERELVAAISSGGSTYYADSVKGRFTISRDNAKNTVYLQMNSLKPEDTAVYYCAASDHYRWYVHRWEDPFYYWGQGTQVTVSS	low polyreactivity
QVQLVESGGGLVQAGGSLRLSSAASGFTLGYYAMGWYRQAPGKEREMVAAIRSSGTRTYYADSVKGRFTISRDNAKYTVYLLMNSLKPEDTAVYYCAARTPSYEMDYWGQGTQVTVSS	high polyreactivity
QDQLVESGGGLVQAGGSLRLSCAASGSTFSRYAMGWYRQAPGKERELVAAITSSGGSTYYADSVKGRFTISRDNAKNTVYLQMNSLKPEDTAVYYCAASYQVRYDYWGQGTQVTVSS	high polyreactivity
QVQLVESGGGLVQAGGSLRLSCAASGRIFRYYDMGWYRQAPGKEREFVAAITRSGAITYYADSVKGRFTISRDNAKNTVYLQMNSLKPEDTAVYYCAARYWSKFGYWGQGTQVTVSS	low polyreactivity
QVQLVESGGGLVQAGGSLRLSCAASGITFVLNVMGWYRQAPGKERELVAAISWSVGGTYYADSVKGRFTISRDNAKNTVYLQMNSLKPEDTAVYYCAAGSYAYDNYGSEYWKWYGYWGQGTQVTVSS	low polyreactivity
QVQLVESGGGLVQAGGSLRLSCAASGSIFPYYTMGWYRQAPGKERELVAAISGSGTSTYYADSVKGRFTISRDNAKNTVYLQMNSLKPEDTADYYCAAPDPDKVRSEGYGYWGQGTHVTVSS	low polyreactivity
QVQLGESGGGLVQAGGSLRLSCAASGSTFYYYAMGWYRQAPGKERELVASINYSAGRTYYADSVKGRFTISRDNAKNTVYLQMNSLKPEDTAVYYCAAETPSGYYPQQYDYYWGQGTQVTVSS	high polyreactivity
QVQLVESGGGLVQAGGSLRLSCAASGSTFLWYTIGWYRQAPGKERELVADISSGGTTYYADSVKGRFTISPDNAKNTVYFQMNSLKPEDTAVYFCAKTRWPYDRWKYAFGYWGQGTQVTVSS	high polyreactivity
QVQLVESWGGLVQAGGSLRLSCVPPDSSSLTILWDGIDRRLGKKGSWLPVLTSRGVGTYYADSVKGRFTNSRDNAKNTFYLQMNSMKPEDSAVYYCNARYEVFYRYDYWGHGTQVTVSS	low polyreactivity
QVQLVESGGGLVQAGGSLRLSCAASGLIFGGNAMGWYRQAPGKERELVAAISRSTGRTYYADSVKGRFTISRDNEKNTVYLQMNSLKPEDTAVYYCNAVGYAFPSYDSWGQGTQVTVSS	high polyreactivity
